In US20180244726A1:

Molecular target: large hepatitis B surface protein (hepatitis B virus)
Assay: cell-based or functional assay

With neutralizing monoclonal antibody Ma18/7 the inhibition of HBV infection of HepG2-hNTCP cells, secreted HBeAg was > 90%.
